# Test results reported in publication PMC8514465, “Functional and structural analysis of catabolite control protein C that responds to citrate” (Scientific Reports, 2021).
# How the values were obtained:
# BaCcpC-FL = biological target: T1, BaCcpC-FL (Bacillus velezensis, UniProt A7Z428); experiment: EMSA with biotin-labelled citB promoter DNA; format: binding; conditions: 40 μM protein, 800 nM citB promoter DNA, 0-70 μM citrate, 30 min, room temperature; inducer
# T1 construct: gene RBAM_013910; full length, residues 1-293; N-terminal His tag removed by TEV; E. coli BL21(DE3); dimer (~60 kDa) by SEC-MALS
# T1 sequence (A7Z428 1-293): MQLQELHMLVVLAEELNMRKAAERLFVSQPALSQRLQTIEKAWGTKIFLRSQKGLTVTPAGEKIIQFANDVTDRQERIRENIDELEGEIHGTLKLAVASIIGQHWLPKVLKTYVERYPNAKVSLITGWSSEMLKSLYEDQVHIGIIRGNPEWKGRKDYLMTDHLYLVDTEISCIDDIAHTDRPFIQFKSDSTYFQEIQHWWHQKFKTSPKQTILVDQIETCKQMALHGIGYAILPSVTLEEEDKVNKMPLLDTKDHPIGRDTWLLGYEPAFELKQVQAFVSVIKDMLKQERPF
# [1] = biological target: the molecule itself; experiment: SEC-MALS; BaCcpC-FL not incubated with citrate; Superdex 200 Increase 10/300 GL, 295 K, 20 mM Tris pH 8.0, 150 mM NaCl, 2 mM 2-mercaptoethanol
# [2] = biological target: the molecule itself; experiment: crystal structure; BaCcpC-IBD with citrate, 2.3 Å, space group C2, SAD phasing; crystals from PEG 6000, MPD, 0.1 M HEPES pH 7.5, 287 K
molecule,measurement,setting,value
O=C(O)CC(O)(CC(=O)O)C(=O)O [citrate],EMSA with biotin-labelled citB promoter DNA,BaCcpC-FL,the presence of citrate slightly suppressed the binding of CcpC to citB-P
"full-length catabolite control protein C from Bacillus amyloliquefaciens (natural protein, UniProt A0A9P1JGF9 1-293, looked up, Catabolite control protein C (CcpC), LysR-type transcriptional regulator, Bacillus amyloliquefaciens, residues 1-293, amplified from genomic DNA; PDB 7DMW holds only residues 88-293; also called BaCcpC-FL; BaCcpC; source: E. coli BL21 (DE3), purified (Ni-NTA, TEV cleavage, HiTrap-Q, Superdex 200); not shown: His6, N-terminal, cleaved) MQLQELHMLVVLAEELNMRKAAERLFVSQPALSQRLQTIEKAWGTKIFLRSQKGLTVTPAGEKIIQFANDVTDRQERIRENIDELEGEIHGTLKLAVASIIGQHWLPKVLKTYVERYPNAKVSLITGWSSEMLKSLYEDQVHIGIIRGNPEWKGRKDYLMTDHLYLVDTEISCIDDIAHTDRPFIQFKSDSTYFQEIQHWWHQKFKTSPKQTILVDQIETCKQMALHGIGYAILPSVTLEEEDKVNKMPLLDAKDHPIGRDTWLLGYEPAFELKQVQAFVSVVKDMLKQERPF",stoichiometry N,[1],2
"C-terminal inducer-binding domain of Bacillus amyloliquefaciens CcpC (domain or fragment, UniProt A0A9P1JGF9 88-293, looked up, selenomethionine-substituted (Se-Met protein used for SAD phasing), Crystallised in complex with citrate; five molecules in the asymmetric unit; Cloned into pPROEX-HTA; also called BaCcpC-IBD; CcpC-IBD; source: E. coli BL21 (DE3), purified (Ni-NTA, TEV cleavage, HiTrap-Q, Superdex 200) with 10 mM sodium citrate throughout; not shown: His6, N-terminal, cleaved) EIHGTLKLAVASIIGQHWLPKVLKTYVERYPNAKVSLITGWSSEMLKSLYEDQVHIGIIRGNPEWKGRKDYLMTDHLYLVDTEISCIDDIAHTDRPFIQFKSDSTYFQEIQHWWHQKFKTSPKQTILVDQIETCKQMALHGIGYAILPSVTLEEEDKVNKMPLLDAKDHPIGRDTWLLGYEPAFELKQVQAFVSVVKDMLKQERPF",binding result,[2],binds
